# Measurements reported in USRE48558 (Genentech, dated 2021).
# Changes are numbered by the printed parent chain. In names and notes the source's numbering stands. Where no end group is shown, it is not given here.
# T1: extracellular domain of human CD79b (human, UniProt P40259 29-159)
# T1 construct: also called huCD79becd; huCD79b-ecd
# T1 sequence: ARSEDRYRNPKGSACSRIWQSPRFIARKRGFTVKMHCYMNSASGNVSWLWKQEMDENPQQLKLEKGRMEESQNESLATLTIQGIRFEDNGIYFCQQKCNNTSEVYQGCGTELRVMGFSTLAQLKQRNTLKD
# T2: human CD79b on the cell surface (human, UniProt P40259 29-229)
# T2 construct: In the Scatchard analysis the BJAB line also stably expressed cynomolgus CD79b; also called PRO36249; endogenous human CD79b on DoHH-2, BJAB and BJAB-luciferase cells
# T2 sequence: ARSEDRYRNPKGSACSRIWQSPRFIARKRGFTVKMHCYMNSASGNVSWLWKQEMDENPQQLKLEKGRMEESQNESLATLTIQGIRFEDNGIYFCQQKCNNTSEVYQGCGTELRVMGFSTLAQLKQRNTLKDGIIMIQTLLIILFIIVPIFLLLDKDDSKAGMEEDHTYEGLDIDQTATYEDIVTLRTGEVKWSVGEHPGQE
# T3: 16 amino acid peptide containing the epitope for MA79b (ARSEDRYRNPKGSACK) (human, also: biotinylated, site not given here)
# T3 construct: Synthetic
# T3 peptide: ARSEDRYRNPKGSACK
# T4: extracellular domain of human CD79b fused to Fc (human, UniProt P40259 29-159)
# T4 construct: also called huCD79becd-Fc; huCD79b-Fc; not shown: Fc part of the fusion
# T4 sequence: T1 sequence
# B1: MA79b-grafted humanized antibody variant 18 (antibody, human IgG1, kappa)
# light: DIQLTQSPSSLSASVGDRVTITCKASQSVDYDGDSFLNWYQQKPGKAPKLLIYAASNLESGVPSRFSGSGSGTDFTLTISSLQPEDFATYYCQQSNEDPLTFGQGTKVEIKRTVAAPSVFIFPPSDEQLKSGTASVVCLLNNFYPREAKVQWKVDNALQSGNSQESVTEQDSKDSTYSLSSTLTLSKADYEKHKVYACEVTHQGLSSPVTKSFNRGEC
# heavy: not shown
# notes: IgG; also called huMA79b.v18; MA79b.v18
# B2: MA79b-grafted humanized antibody variant 28 (antibody, human IgG1, kappa)
# light: B1 light with D32E
# heavy: not shown
# notes: IgG; also called huMA79b.v28
# B3: thio huMA79b.v18-HC(A118C)-MC-vcPAB-MMAE (antibody, human IgG1, kappa)
# heavy: not shown
# light: B1 light
# modifications: MC-val-cit-PAB-MMAE on the engineered Cys at EU position 118 (sequential 118; Kabat 114)
# notes: Cysteine engineered antibody drug conjugate
# B4: thio huMA79b.v18-HC(A118C)-BMPEO-DM1 (antibody, human IgG1, kappa)
# heavy: not shown
# light: B1 light
# modifications: BMPEO-DM1 on the engineered Cys at EU position 118 (sequential 118; Kabat 114)
# notes: Cysteine engineered antibody drug conjugate; also called huMA79b.v18-HC(A118C) thioMAb-BMPEO-DM1
# B5: thio huMA79b.v18-HC(A118C)-MC-MMAF (antibody, human IgG1, kappa)
# heavy: not shown
# light: B1 light
# modifications: MC-MMAF on the engineered Cys at EU position 118 (sequential 118; Kabat 114)
# notes: as for B3
# B6: thio huMA79b.v28-HC(A118C)-MCvcPAB-MMAE (antibody, human IgG1, kappa)
# heavy: not shown
# light: B1 light with D32E
# modifications: MC-val-cit-PAB-MMAE on the engineered Cys at EU position 118 (sequential 118; Kabat 114)
# notes: Cysteine engineered antibody drug conjugate; also called thio huMA79b.v28-HC(A118C)-MC-val-cit-PAB-MMAE
# B7: MA79b-grafted humanized antibody variant 32 (antibody, human IgG1, kappa, V domains shown)
# VH: EVQLVESGGGLVQPGGSLRLSCAASGYTFSSYWIEWVRQAPGKGLEWIGEILPGGGDTNYNEIFKGRATFSADTSKNTAYLQMNSLRAEDTAVYYCTRRVPIRLDYWGQGTLVTVSS
# VL: DIQLTQSPSSLSASVGDRVTITCKASQSVDYSGDSFLNWYQQKPGKAPKLFIYAASNLESGVPSRFSGSGSGTDFTLTISSLQPEDFATYYCQQSNEDPLTFGQGTKVEIKR
# notes: also called huMA79b.v32; MA79b.v32
# B8: thio huMA79b.v28-HC(A118C)-MC-MMAF (antibody, human IgG1, kappa)
# heavy: not shown
# light: B1 light with D32E
# modifications: MC-MMAF on the engineered Cys at EU position 118 (sequential 118; Kabat 114)
# notes: as for B3
# B9: thio huMA79b.v28-HC(A118C)-BMPEO-DM1 (antibody, human IgG1, kappa)
# heavy: not shown
# light: B1 light with D32E
# modifications: BMPEO-DM1 on the engineered Cys at EU position 118 (sequential 118; Kabat 114)
# notes: as for B3
# B10: MA79b-grafted humanized antibody variant 17 (antibody, human IgG1, kappa, V domains shown)
# VH: B7 VH with I102V, R103Y, L104F
# VL: B7 VL with S32D, F51L
# notes: IgG; also called huMA79b.v17
# B11: huMA79b H3-10 (Fab) (Fab, name in Kabat numbering, V domains shown)
# VH: B7 VH with I48V, A68F, F70I
# VL: B7 VL with L4M, S32D, F51L
# notes: Fab on phage in the selection; purified Fab in FACS; rest as huMA79b graft; also called H3-10 mutation
# B12: MA79b-grafted humanized antibody (IgG) (antibody, V domains shown)
# VH: B7 VH with I48V, A68F, F70I, I102V, R103Y, L104F
# VL: B7 VL with L4M, S32D, F51L
# notes: Expressed as IgG; also called huMA79b graft; huMA79b-graft
# B13: MA79b-grafted humanized antibody variant L2/H3 (antibody, name in Kabat numbering, V domains shown)
# VH: B7 VH with I48V, A68F, F70I
# VL: B7 VL with L4M, S32D, F51L, S56R, N57K, E59G, S60R
# notes: 125I-labelled in the Scatchard analysis; also called huMA79b L2/H3
# B14: huMA79b L2-2 (Fab) (Fab, name in Kabat numbering, V domains shown)
# VH: B7 VH with I48V, A68F, F70I, I102V, R103Y, L104F
# VL: B7 VL with L4M, S32D, F51L, S56R, N57K, E59G, S60R
# notes: Fab on phage in the selection; purified Fab in FACS and Biacore; rest as huMA79b graft; also called L2-2 mutation; MA79b-grafted humanized antibody variant L2-2
# B15: huMA79b graft variant H1-1 (Fab) (Fab, name in Kabat numbering, V domains shown)
# VH: B7 VH with T28P, S30N, S31R, E35N, I48V, A68F, F70I, I102V, R103Y, L104F
# VL: B7 VL with L4M, S32D, F51L
# notes: Fab on phage in the selection; purified Fab in FACS; rest as huMA79b graft; also called H1-1 mutation
# B16: murine anti-CD79b monoclonal antibody MA79b (antibody, V domains shown)
# VL: DIVLTQSPASLAVSLGQRATISCKASQSVDYDGDSFLNWYQQKPGQPPKLFIYAASNLESGIPARFSGSGSGTDFTLNIHPVEEEDAATYYCQQSNEDPLTFGAGTELELKR
# VH: EVQLQQSGAELMKPGASVKISCKATGYTFSSYWIEWVKQRPGHGLEWIGEILPGGGDTNYNEIFKGKATFTADTSSNTAYMQLSSLTSEDSAVYYCTRRVPVYFDYWGQGTSVTVSS
# notes: Murine IgG; 125I-labelled in the Scatchard analysis; also called murine CD79b antibody; original mouse anti-CD79b monoclonal antibody
# Key:
# [1] = biological target: T1, extracellular domain of human CD79b; experiment: SPR (Biacore), IgG, immobilized huCD79becd
# [2] = biological target: T2, human CD79b on the cell surface; experiment: Scatchard analysis, IgG, BJAB cells stably expressing cynomolgus CD79b and endogenous human CD79b
# [3] = biological target: T2, human CD79b on the cell surface; experiment: FACS on BJAB-luciferase cells, PE anti-human IgG detection
# [4] = biological target: T2, human CD79b on the cell surface; experiment: FACS on BJAB-luciferase cells, PE anti-human detection
# [5] = biological target: T2, human CD79b on the cell surface; experiment: FACS on DoHH-2 cells, Fab, PE anti-human kappa detection
# [6] = biological target: T1, extracellular domain of human CD79b; experiment: phage selection, Fab on phage, plate-bound huCD79becd
# [7] = biological target: T1, extracellular domain of human CD79b; experiment: FACS analysis, IgG (data not shown); reference not given
# [8] = biological target: T1, extracellular domain of human CD79b; experiment: SPR (Biacore), IgG, immobilized huCD79becd; reference not given
# [9] = biological target: T2, human CD79b on the cell surface; experiment: Scatchard analysis, 125I-labelled IgG competed with unlabelled IgG on BJAB cells stably expressing cynomolgus CD79b and endogenous human CD79b
# [10] = biological target: T3, 16 amino acid peptide containing the …; experiment: SPR (Biacore), biotinylated peptide captured on streptavidin chip
# [11] = biological target: T4, extracellular domain of human CD79b …; experiment: SPR (Biacore), Fab against MA79b Fab, immobilized huCD79becd-Fc
# [12] = biological target: T4, extracellular domain of human CD79b …; experiment: SPR (Biacore), IgG compared with Fab, immobilized huCD79becd-Fc
binder,measurement,setting,value
B1,fold improvement in dimeric binding compared to variant 17,[1],2 fold
B2,Kd,[2],0.44 nM
B3,binding result,[3],binds
B4,binding result,[3],binds
B5,binding result,[3],binds
B6,binding result,[4],binds
B7,Kd,[2],0.24 nM
B8,binding result,[4],binds
B9,binding result,[4],binds
B10,binding result,[1],binds
B11,binding result,[5],binds
same,binding result,[6],binds
B12,fold reduction in binding affinity,[7],> 100 fold
same,fold loss of affinity,[8],> 50 fold
B13,Kd,[9],0.52 nM
same,binding result,[10],binds
B14,fold improvement in monomeric binding compared to MA79b,[11],5 fold
B15,binding result,[5],binds
same,binding result,[6],binds
B16,Kd,[9],0.63 nM
same,fold avidity component (IgG against Fab of MA79b),[12],100 fold
